Test results from patent US20070243303, “Methods and Means for Regulating Gene Expression” (Friesland Brands B.V., published 2007).

Assays:
CodY (native, in cell) [1] = target: T1, CodY (native, in cell) (Lactococcus lactis subsp. cremoris …, UniProt A2RHP2 A2RHP2:1-262); experiment: cell_activity; settings: 8-fold for prtM::lacZ; less than 2-fold in codY mutant; scale: fold repression
T1 sequence: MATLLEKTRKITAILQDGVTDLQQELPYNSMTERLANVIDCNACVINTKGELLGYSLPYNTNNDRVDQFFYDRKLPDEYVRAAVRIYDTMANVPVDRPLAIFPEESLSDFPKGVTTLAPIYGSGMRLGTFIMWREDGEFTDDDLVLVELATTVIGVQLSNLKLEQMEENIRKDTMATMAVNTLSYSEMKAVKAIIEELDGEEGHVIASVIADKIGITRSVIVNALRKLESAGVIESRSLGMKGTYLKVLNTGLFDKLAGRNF

CodY (H6-CodY) [2] = target: T2, CodY (H6-CodY) (Lactococcus lactis subsp. cremoris …, UniProt A2RHP2 A2RHP2:1-262); experiment: EMSA; multiple retarded bands, four with 10-100 ng; 5 mM MgCl2, 100 mM KCl, pH 8.0, 30 C; Ile (0.6 or 2.5 mM) stimulates, Val/Leu 0.6 mM reduce shift and 2.5 mM give; settings: tags: N-terminal His6 (pNH6CodY, nisin-induced in L. lactis NZ9000, Ni-NTA); chain copies: multimer, dimer or tetramer by cross-linking (stated); label: 32P 5'-end
T2 sequence: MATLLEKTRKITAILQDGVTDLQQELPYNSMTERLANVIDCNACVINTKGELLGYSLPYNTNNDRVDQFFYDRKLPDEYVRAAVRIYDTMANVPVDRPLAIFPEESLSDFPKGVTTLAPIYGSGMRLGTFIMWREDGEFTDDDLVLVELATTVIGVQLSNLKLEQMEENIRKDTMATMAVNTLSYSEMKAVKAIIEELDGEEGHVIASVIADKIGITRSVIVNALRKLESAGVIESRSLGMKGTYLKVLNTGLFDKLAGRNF
Method: Gel retardation experiments were carried out essentially as described by Ebbole and Zalkin (Ebbole et al., 1989). Purified PCR products (2 μg) were end-labelled with polynucleotide kinase (Amersham Pharmacia Biotech) for 1 h at 37° C. using 30 μCi [γ-³²P]-ATP (Amersham Pharmacia Biotech) in a volume of 20 μl. Reactions were stopped by incubating the mixtures for 10 min at 70° C. […] BSA (1 μg) and poly(dI-dC) (Amersham Pharmacia Biotech) were added to the reaction mixtures in order to reduce non-specific interactions. After incubation for 15 min at 30° C., samples were loaded onto a 4% polyacrylamide gel. Electrophoresis was performed in the Protean II Minigel System (Bio Rad Laboratories B. V., Veenendaal, The Netherlands) using a gradient (0.5× to 2×) of TAE buffer (Sambrook, Fritsch, and Maniatis, 1989) at 150 V for 1.5 h. Gels were dried and used for autoradiography at −80° C. using Kodak XAR-5 films and intensifying screens.
In order to examine whether L. lactis CodY directly interacts with upstream DNA sequences of its main target known so far, oppD, in vitro DNA binding studies were performed. For this purpose, histidine-tagged CodY was overexpressed using the nisin inducible gene expression system (Kuipers et al., 1998) and subsequently purified to apparent homogeneity. A radioactively labeled PCR fragment spanning the oppD upstream region (FIG. 1) was used as a probe. […]

CodY (native, in cell) [3] = target: T1, CodY (native, in cell); experiment: cell_activity; lacZ reporter in L. lactis LL108
From the text: (§1) The fact that H6-CodY was unable to form a protein-DNA complex when a probe was used that lacks the upstream arm of this IR (probe 1 in FIG. 3) implies that this area might serve as an operator site for CodY on PoppD. To study this region in more detail, site directed mutations were introduced by PCR using combinations of oligonucleotide opp1 with oligonucleotides opp14 (WT), opp15(a), opp(15b) or opp2, respectively (FIG. 4A). The PCR products were ligated upstream of the promoterless lacZ reporter gene in pORI13 and introduced into L. lactis LL108. […] When the unchanged half-site was replaced by an unrelated sequence (an XbaI endonuclease site, present in opp2), repression was reduced approximately 30-fold (in cells growing exponentially in rich medium) and H6-CodY binding was completely abolished (as shown in FIG. 3).
(§2) FIG. 4D: Promoter activity of PoppD variants. L. lactis LL108 strains carrying the lacZ reporter plasmids were grown in GM17 medium. Cells were harvested in the exponential phase of growth and β-galactosidase activity was measured (solid bars). […] Open bars indicate a quantitative representation of the DNA binding assay shown in panel C. The relative binding affinity of H6-CodY for the PoppD variants was calculated by comparing the intensity of the shifted, H6-CodY bound complexes with the total radioactive signal in each lane in the presence of 100 ng protein.

CodY (H6-CodY) [4] = target: T2, CodY (H6-CodY); experiment: EMSA; 20 or 200 ng H6-CodY; settings: tags: N-terminal His6 (pNH6CodY, nisin-induced in L. lactis NZ9000, Ni-NTA); chain copies: multimer, dimer or tetramer by cross-linking (stated); label: 32P 5'-end
Method: Gel retardation experiments were carried out essentially as described by Ebbole and Zalkin (Ebbole et al., 1989). Purified PCR products (2 μg) were end-labelled with polynucleotide kinase (Amersham Pharmacia Biotech) for 1 h at 37° C. using 30 μCi [γ-³²P]-ATP (Amersham Pharmacia Biotech) in a volume of 20 μl. Reactions were stopped by incubating the mixtures for 10 min at 70° C. Binding studies were carried out in 20 μl reaction volumes containing 20 mM Tris-HCl (pH 8.0), 8.7% (v/v) glycerol, 1 mM EDTA (pH 8.0), 5 mM MgCl₂, 100 mM KCL, 0.5 mM DTT, labelled DNA fragment (3000 cpm), and purified His6-CodY protein (50-400 ng). BSA (1 μg) and poly(dI-dC) (Amersham Pharmacia Biotech) were added to the reaction mixtures in order to reduce non-specific interactions. After incubation for 15 min at 30° C., samples were loaded onto a 4% polyacrylamide gel. Electrophoresis was performed in the Protean II Minigel System (Bio Rad Laboratories B. V., Veenendaal, The Netherlands) using a gradient (0.5× to 2×) of TAE buffer (Sambrook, Fritsch, and Maniatis, 1989) at 150 V for 1.5 h. Gels were dried and used for autoradiography at −80° C. using Kodak XAR-5 films and intensifying screens.
The upstream oppD region contains a small sequence that is inversely repeated with a spacing of 9 base pairs in between (FIG. 1). This region of dyad symmetry is located just upstream of the −35 promoter sequence. […]

CodY (H6-CodY) [5] = target: T2, CodY (H6-CodY); experiment: EMSA; no binding at any protein amount; settings: tags: N-terminal His6 (pNH6CodY, nisin-induced in L. lactis NZ9000, Ni-NTA); chain copies: multimer, dimer or tetramer by cross-linking (stated); label: 32P 5'-end
Method: BSA (1 μg) and poly(dI-dC) (Amersham Pharmacia Biotech) were added to the reaction mixtures in order to reduce non-specific interactions. After incubation for 15 min at 30° C., samples were loaded onto a 4% polyacrylamide gel. Electrophoresis was performed in the Protean II Minigel System (Bio Rad Laboratories B. V., Veenendaal, The Netherlands) using a gradient (0.5× to 2×) of TAE buffer (Sambrook, Fritsch, and Maniatis, 1989) at 150 V for 1.5 h. Gels were dried and used for autoradiography at −80° C. using Kodak XAR-5 films and intensifying screens.
The upstream oppD region contains a small sequence that is inversely repeated with a spacing of 9 base pairs in between (FIG. 1). This region of dyad symmetry is located just upstream of the −35 promoter sequence. To determine whether this region is important for the interaction with CodY, a stepwise deletion analysis of the oppD upstream region was performed. Radioactively labeled deletion fragments of the region, obtained by PCR, were incubated with H6-CodY. […]
Different parts of the oppD promoter region were amplified by PCR (panel A), radioactively labelled and incubated with no (lanes 1), 20 ng (lanes 2) or 200 ng (lanes 3) of His6-CodY protein, respectively (panel B). […] Cells were harvested in the exponential phase of growth and β-galactosidase activity was measured (solid bars). […]

CodY (H6-CodY) [6] = target: T2, CodY (H6-CodY); experiment: EMSA; affinity order WT > opp15(a) > opp15(b); settings: tags: N-terminal His6 (pNH6CodY, nisin-induced in L. lactis NZ9000, Ni-NTA); chain copies: multimer, dimer or tetramer by cross-linking (stated); label: 32P 5'-end
From the text: as §1, §2

prtP/prtM intergenic region BGMN1-5 (330 bp)
activity (CodY (native, in cell) [1]): 6

B1: oppD promoter fragment opp162 (probe 3, opp1-opp3 PCR) (dsDNA)
DNA 1: ATGTTCAGAAAATTCATGAACAT
DNA 2: ATGTTCATGAATTTTCTGAACAT
binding result (CodY (H6-CodY) [2]): binds

B2: opp15(a) mutant oppD fragment (154 bp) (dsDNA)
DNA 1: AACTGCAGCGTAATATTTAGAAAATTCATGAACATACC
DNA 2: GGTATGTTCATGAATTTTCTAAATATTACGCTGCAGTT
activity (CodY (native, in cell) [3]): ~7 fold derepression vs WT

B3: opp15(b) mutant oppD fragment (154 bp) (dsDNA)
DNA 1: AACTGCAGCGTACTGTGCCGAAAATTCATGAACATACC
DNA 2: GGTATGTTCATGAATTTTCGGCACAGTACGCTGCAGTT
activity (CodY (native, in cell) [3]): > 20 fold derepression vs WT

B4: oppD probe 2 (-111 to +75) (dsDNA)
DNA 1: ATGTTCAGAAAATTCATGAACAT
DNA 2: ATGTTCATGAATTTTCTGAACAT
binding result (CodY (H6-CodY) [4]): binds

B5: oppD probe 1 / opp2 (160 bp, upstream arm removed) (dsDNA)
DNA 1: AACTGCAGGAAAATTCATGAACATACC
DNA 2: GGTATGTTCATGAATTTTCCTGCAGTT
binding result (CodY (H6-CodY) [5]): no binding

B6: opp14 WT oppD fragment (154 bp) (dsDNA)
DNA 1: ATGTTCAGAAAATTCATGAACAT
DNA 2: ATGTTCATGAATTTTCTGAACAT
binding result (CodY (H6-CodY) [6]): binds
